Measured values as given in patent US6863888.

Key:
[1] = biological target: GSTvJun, GST fused to the region of v-Jun equivalent to chicken c-Jun AA 1-144 [GST: P08515]
[2] = biological target: T1, GSTcJun(Ala63/73), GST fused to c-Jun AA 1-223 with Ser 63 and Ser 73 converted to alanines
T1 chain: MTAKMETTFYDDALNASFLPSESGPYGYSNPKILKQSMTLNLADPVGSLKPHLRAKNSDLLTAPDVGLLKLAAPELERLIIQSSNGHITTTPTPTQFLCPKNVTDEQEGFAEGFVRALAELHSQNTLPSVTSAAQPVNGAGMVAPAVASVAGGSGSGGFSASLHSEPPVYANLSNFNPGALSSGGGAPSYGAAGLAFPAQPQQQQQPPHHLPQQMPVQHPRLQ

[3] = biological target: GSTcJun(wt), glutathione-S-transferase fused to c-Jun AA 1-223 [GST: P08515]
[4] = biological target: myelin basic protein (MBP)
[5] = biological target: T2, GST-cJun(1-79), GST fused to c-Jun AA 1-79
T2 chain: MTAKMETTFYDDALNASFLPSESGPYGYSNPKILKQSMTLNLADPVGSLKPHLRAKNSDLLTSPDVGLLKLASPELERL

[6] = biological target: T3, GST-cJun(43-223), GST fused to c-Jun AA 43-223
T3 chain: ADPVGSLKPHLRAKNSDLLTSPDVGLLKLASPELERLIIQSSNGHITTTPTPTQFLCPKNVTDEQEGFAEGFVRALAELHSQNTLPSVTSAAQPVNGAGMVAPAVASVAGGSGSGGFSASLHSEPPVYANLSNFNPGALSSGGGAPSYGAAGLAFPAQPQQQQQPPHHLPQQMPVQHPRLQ

[7] = biological target: GAL4-cJun(56-223) (yeast; human), P04386; assay: cell-based or functional assay
[8] = biological target: GAL4-cJun(33-223) (yeast; human), P04386; assay: cell-based or functional assay
[9] = biological target: GAL4-cJun(43-223) (yeast; human), P04386; assay: cell-based or functional assay
[10] = biological target: T4, GSTcJun(33-223), GST fused to c-Jun AA 33-223
T4 chain: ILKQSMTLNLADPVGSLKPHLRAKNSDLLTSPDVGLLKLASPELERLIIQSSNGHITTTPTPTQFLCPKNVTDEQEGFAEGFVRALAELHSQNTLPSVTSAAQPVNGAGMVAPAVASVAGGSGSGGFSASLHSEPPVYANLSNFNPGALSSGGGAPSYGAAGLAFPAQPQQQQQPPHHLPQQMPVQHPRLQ

B1: epitope-tagged JNK1 (Flag epitope Asp-Tyr-Lys-Asp-Asp-Asp-Asp-Lys inserted between codons 1 and 2), expressed in COS cells (protein)
chain: MDYKDDDDKSRSKRDNNFYSVEIGDSTFTVLKRYQNLKPIGSGAQGIVCAAYDAILERNVAIKKLSRPFQNQTHAKRAYRELVLMKCVNHKNIIGLLNVFTPQKSLEEFQDVYIVMELMDANLCQVIQMELDHERMSYLLYQMLCGIKHLHSAGIIHRDLKPSNIVVKSDCTLKILDFGLARTAGTSFMMTPYVVTRYYRAPEVILGMGYKENVDLWSVGCIMGEMVCHKILFPGRDYIDQWNKVIEQLGTPCPEFMKKLQPTVRTYVENRPKYAGYSFEKLFPDVLFPADSEHNKLKASQARDLLSKMLVIDASKRISVDEALQHPYINVWYDPSEAEAPPPKIPDKQLDEREHTIEEWKELIYKEVMDLEERTKNGVIRGQPSPLAQVQQ
For B1, the “phosphorylation, immunecomplex kinase assay” value [1] was “both GST-vJun and myelin basic protein (MBP) are very poor substrates for JNK1”, the “phosphorylation, immunecomplex kinase assay” value [2] was “Replacement of Ser-63 and Ser-73 with Ala also decreased the observed phosphorylation” and the “phosphorylation, immunecomplex kinase assay” value [3] was “JNK1 efficiently phosphorylated GST-cJun fusion proteins containing residues 1-223 and 1-79 of c-Jun”. The “phosphorylation, immunecomplex kinase assay” value [4] was “both GST-vJun and myelin basic protein (MBP) are very poor substrates for JNK1”, the “phosphorylation, immunecomplex kinase assay” value [5] was “JNK1 efficiently phosphorylated GST-cJun fusion proteins containing residues 1-223 and 1-79 of c-Jun” and the “phosphorylation, immunecomplex kinase assay” value [6] was “a deletion of c-Jun NH2-terminal sequences including the d-domain (residues 1-42) caused a marked decrease in phosphorylation by JNK1”.

B2: c-Jun N-terminal protein kinase (JNK), 46 kD form, endogenous kinase from cell extracts, P45983-2 1-384 (enzyme)
chain: MSRSKRDNNFYSVEIGDSTFTVLKRYQNLKPIGSGAQGIVCAAYDAILERNVAIKKLSRPFQNQTHAKRAYRELVLMKCVNHKNIIGLLNVFTPQKSLEEFQDVYIVMELMDANLCQVIQMELDHERMSYLLYQMLCGIKHLHSAGIIHRDLKPSNIVVKSDCTLKILDFGLARTAGTSFMMTPYVVTRYYRAPEVILGMGYKENVDLWSVGCIMGEMVCHKILFPGRDYIDQWNKVIEQLGTPCPEFMKKLQPTVRTYVENRPKYAGYSFEKLFPDVLFPADSEHNKLKASQARDLLSKMLVIDASKRISVDEALQHPYINVWYDPSEAEAPPPKIPDKQLDEREHTIEEWKELIYKEVMDLEERTKNGVIRGQPSPLAQVQQ
B2 gave a Ha-Ras responsiveness, CAT activity of 5xGAL4-Elb-CAT reporter in F9 cells (fold induction) [7] of 5.2, a UV responsiveness, CAT activity of 5xGAL4-Elb-CAT reporter in F9 cells [7] of 1.5 fold and a Ha-Ras responsiveness, CAT activity of 5xGAL4-Elb-CAT reporter in F9 cells (fold induction) [8] of 9.8. It also gave a Ha-Ras responsiveness, CAT activity of 5xGAL4-Elb-CAT reporter in F9 cells (fold induction) [9] of 5.2 and a UV responsiveness, CAT activity of 5xGAL4-Elb-CAT reporter in F9 cells [9] of 1.5 fold.

B3: c-Jun N-terminal protein kinase (JNK), 46 kD form, endogenous kinase from cell extracts (protein)
chain: MSRSKRDNNFYSVEIGDSTFTVLKRYQNLKPIGSGAQGIVCAAYDAILERNVAIKKLSRPFQNQTHAKRAYRELVLMKCVNHKNIIGLLNVFTPQKSLEEFQDVYIVMELMDANLCQVIQMELDHERMSYLLYQMLCGIKHLHSAGIIHRDLKPSNIVVKSDCTLKILDFGLARTAGTSFMMTPYVVTRYYRAPEVILGMGYKENVDLWSVGCIMGEMVCHKILFPGRDYIDQWNKVIEQLGTPCPEFMKKLQPTVRTYVENRPKYAGYSFEKLFPDVLFPADSEHNKLKASQARDLLSKMLVIDASKRISVDEALQHPYINVWYDPSEAEAPPPKIPDKQLDEREHTIEEWKELIYKEVMDLEERTKNGVIRGQPSPLAQVQQ
With B3 the “phosphorylation in solid-phase kinase assay” value [2] was “Phosphorylation of this protein was considerably lower than that of GSTcJun(wt)” and the “phosphorylation of the GSTcJun fusion protein by bound kinase” value [10] was “Removal of AA 1-32 decreased phosphorylation of GSTcJun but had only a small effect on kinase binding”.
